{"source": "paper PMC9204835", "about": "(Journal of the American Chemical Society, 2022)", "proteins": {"B1": {"name": "SpeY-E269A/E270A double mutant (enzyme, Streptomyces spectabilis ATCC 27741)", "chain": "MSVRLADGKVRNPEGIEVNASLQCNMRCQSCAHLSPLYRRENADPAEIHDTLSVLARSYHASYAKIMGGEPLLHPDVVGLIEAVRATGISDTVLVATNGTLLHRATERFWQAVDSLEISVYPSRMIAPEEIERYRVLAREHGVSLLVNYYGHFRAVYSESGTDAPDLVRDVFDTCKLAHFWNSHTVYDGWLYRCPQSVFMPRQLRDGGWDPRVDGLRIEDDPAFLERLHRFLTADDPLRACRNCLGSVGKLHPHQELPRAGWQVTEQLAALVDYPFLKVCKDDITADDGCVERSLSAPVGGA"}}, "biological_target": "the molecule itself", "experiment": "crystal structure"}
{"protein": "B1", "values": [{"measurement": "binding result", "result": "binds"}]}
